Assay results taken from patent US20110311535A1.

Target: NKG2D ligands expressed on YAC-1 cells
Test: cell-based or functional assay

ADCC by thioglycollate-elicited macrophages (percent of target cells): 55% | complement-dependent lysis of YAC-1 cells: 80%
B1: murine NKG2D-Fc fusion protein (IgG2a-IEGR-NKG2D construct) (Fc fusion, mouse, not shown: a dimerising Fc or GST)
chain: IEGRETFQPVLCNKEVPVSSREGYCGPCPNNWICHRNNCYQFFNEEKTWNQSQASCLSQNSSLLKIYSKEEQDFLKLVKSYHWMGLVQIPANGSWQWEDGSSLSYNQLTLVEIPKGSCAVYGSSFKAYTEDCANLNTYICMKRAV
